T1: BMP-9 (Homo sapiens, UniProt Q9UK05)
T1 sequence (Q9UK05 320-429): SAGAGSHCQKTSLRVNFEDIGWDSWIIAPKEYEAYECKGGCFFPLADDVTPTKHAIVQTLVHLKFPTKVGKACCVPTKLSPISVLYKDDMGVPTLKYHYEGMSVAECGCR

B1: P1372: hActRIIB L33W, 14 aa linker, IgG1 YTE-DL Fc; SEQ ID 231 (protein)
chain: ETRECIYYNANWELERTNQSGLERCEGEQDKRWHCYASWRNSSGTIELVKKGCWLDDFNCYDRQECVATEENPQVYFCCCEGNFCNERFTHLPEAGGPEVTYEPPPTGGGGSGGGGSGGGGTHTCPPCPAPELLGGPSVFLFPPKPKDTLYITREPEVTCVVVDVSHEDPEVKFNWYVDGVEVHNAKTKPREEQYNSTYRVVSVLTVLHQDWLNGKEYKCKVSNKALPAPIEKTISKAKGQPREPQVYTLPPSRDELTKNQVSLTCLVKGFYPSDIAVEWESNGQPENNYKTTPPVLDSDGSFFLYSKLTVDKSRWQQGNVFSCSVMHEALHNHYTQKSLSLSPG

How the values were obtained:
TGFβ superfamily ligands = experiment: Neutralization profile across TGFβ superfamily ligands (HEK293 and HepG2 reporter assays, summary); assay type: cell-based, human
Procedure: Potency testing by neutralization on cell-based assays. Characterization of the activin A, activin B, GDF-8, and GDF-11 inhibition potency (IC50) of the fusion proteins was performed using a cell-based reporter assay. TGFβ-reporter HEK293 cells were obtained from InvivoGen (San Diego, CA, cat. no. hkb-tgfb) and were maintained following the manufacturer's instructions. Briefly, cells were grown in high-glucose DMEM, containing 10% heat-inactivated FBS, 30 μg/mL blasticidin, 250 μg/mL hygromycin B, and 100 μg/mL zeocin (hereafter, “growth medium”). Once the cells reached 70-80% confluence, they were detached in growth medium by gently tapping on the flask. For all assays, cells were seeded in 96-well plates at a density of 20,000 cells per well in growth medium. Cells were left to attach for 10 minutes at room temperature (RT) prior to being transferred to a 37° C. incubator (5% CO2) overnight. The next day, treatments were prepared by combining the appropriate concentration of agent with activin A, activin B, GDF-8, or GDF-11 for 30 min at RT (shaking at 150 rpm). Treatments were conducted in high-glucose DMEM (serum-free and with no selection agents), and the final concentration of cytokine (ligand) was 0.3 nM. Growth medium was removed from the culture plates, and cells were treated with the appropriate mixes of fusion protein and cytokine. Treatment duration was for 18-22 h at 37° C. (5% CO2). All treatments were performed in technical duplicates and at least one or two independent experiments were conducted for each cytokine. At the end of the treatment period, supernatants were transferred to a new plate, and centrifuged at 300 RPM for 3 min. Forty microlitres of supernatant from each condition was transferred to a new plate, into which 180 μL of Quanti-Blue reagent (InvivoGen, cat. no. rep-qbs) was added. Quanti-Blue reagent was prepared following the manufacturer's instructions. Samples were incubated for 45 min at 37° C. At the end of the incubation, absorbance was read at 650 nm. The data were plotted in GraphPad Prism, which was used to calculate IC50 values as a non-linear regression.
Characterization of the BMP-9 and BMP-10 inhibition potency (IC50) of the fusion proteins was performed using a second cell-based reporter assay. Human hepatic HepG2 cells were transfected with a SEAP-encoding plasmid, in which SEAP expression is under the control of the murine Id1 promoter. A stable pool was generated from this transfection. Cells were grown in EMEM, containing 10% heat-inactivated FBS and 200 μg/mL zeocin (hereafter, “HepG2 growth medium”). […] For all assays, cells were seeded in 96-well plates at a confluence of 100,000 cells per well in HepG2 growth medium. Cells were left to attach for 10 minutes at RT prior to being transferred to a 37° C. incubator (5% CO2) overnight. The next day, treatments were prepared in EMEM (2.5% heat-inactivated FBS and with no selection agents) by combining the appropriate concentration of agent with BMP-9 or BMP-10 for 30 min at RT (shaking at 150 rpm). Treatments were conducted in EMEM (2.5% heat-inactivated FBS and with no selection agents), and the final concentration of BMP-9 and BMP-10 was 2 ng/mL and 40 ng/mL, respectively. HepG2 growth medium was removed from the culture plates, and cells were treated with the appropriate mixes of fusion protein and cytokine. Treatment duration was for 20-24 h at 37° C. (5% CO2). […]

BMP-9 = biological target: T1, BMP-9; experiment: Small-scale BMP-9 ELISA with CHO supernatants; assay type: binding; conditions: BMP-9 10 ng/mL
Procedure: Small-scale testing of ActRIIB-ECD fusion proteins. Additional investigation of a series of exemplary agents was performed using proteins expressed in CHO cells. Briefly, DNA encoding the ActRIIB-ECD-Fc fusion constructs was transfected in cells seeded in 12-well plates in a final volume of 1 ml. After 7 days, the supernatant was harvested, clarified, and the amount of expressed protein in each well was quantified using standard methods. The potency of each agent for inhibition of activin A, BMP-9 and BMP-10 was determined in three separate assays.
The next day, the plate was washed three times. […] Expressed proteins in the supernatants were diluted 1 in 2 in assay diluent (0.5% BSA, 0.05% tween-20 in PBS) and 100 μl was added to the 96-well plate in technical duplicates. After a 1.5-hour incubation at RT, the plate was washed three times. […] In this assay, a loss of signal indicates less binding of the exemplary agent to BMP-9. Results are expressed as a % of the signal obtained with wild-type ActRIIB-Fc (P75).

[1] = SEC-HPLC monomer and HMW content of purified fusion proteins; assay type: physicochemical; conditions: after Protein A purification
Text: Given that protein aggregation can be indicative of reduced conformational stability and decreased activity, Size-Exclusion Chromatography-High Performance Liquid Chromatography (SEC-HPLC) was used to determine the purity of each ActRIIB-ECD construct. This method measured the percentage of intact monomeric species as well as the presence of aggregates and/or degradation products.
All proteins expressed efficiently in CHO and/or 293 cells and purification efficiency of each using Protein A affinity chromatography was similar.

[2] = system: diet-induced obese (DIO) mice; experiment: Body composition and metabolism in diet-induced obese (DIO) mice; assay type: in vivo
Procedure: Experiments were performed to assess the effects of P1229 on body composition and metabolism in diet-induced obese (DIO) mice. DIO mice were purchased from Jackson Laboratories (#380050). Briefly, mice were fed a high-fat diet (HFD, 60% kcal from fat) from 6 weeks of age until 22 weeks of age (total of 16 weeks on the HFD). […] After 3 weeks of treatments, some animals were sacrificed and scanned by EchoMRI […] (FIGS. 11A-F), while others were sacrificed for tissue collection and RNA analysis. Animals were maintained on the HFD throughout the acclimatization and treatment periods. The murine version of bimagrumab used for these experiments comprises the heavy chain amino acid sequence of SEQ ID NO: 376 and the light chain sequence of SEQ ID NO: 377.

[3] = Single subcutaneous injection in CD-1 mice: body weight; assay type: in vivo; conditions: CD-1 male mice, single s.c. injection; P1229 50 mg/kg, semaglutide 2 mg/kg

BMP-9 binding, ELISA signal relative to P75 (BMP-9) | Molecule | improved potency on activin A, GDF-8, and GDF-11 relative to P75 (TGFβ superfamily ligands) | high molecular weight (HMW) content (SEC-HPLC) [1] | monomer content (SEC-HPLC) [1] | hepatic Ahsg expression [2] | hepatic Fgf21 expression [2] | Mss51 gene expression in gastrocnemius muscle ([2]; 3 weeks) | ratio of lean mass to fat mass ([2]; 3 weeks) | fat mass and lean mass (EchoMRI) ([2]; 3 weeks s.c., P75, P1229 25 mg/kg twice weekly, P1373 5, 20, 50 mg/kg twice weekly, P1307 20 mg/kg weekly) | body weight [3] | impact of modifications in the Fc sequence on activin A, activin B, GDF-8, and GDF-11 potency (TGFβ superfamily ligands; all ligands) | impact of modifications in the Fc sequence on BMP-9 and BMP-10 potency (TGFβ superfamily ligands; both ligands)
very low BMP-9 binding | P1229: hActRIIB L33W, 14 aa linker, IgG1-DL Fc; SEQ ID 211 | ~ 4 fold | 3% | 97% | reduced Ahsg expression | reduced | reduced Mss51 gene expression | higher | fat loss with concomitant lean mass gain | increased body weight |  | 
near-undetectable binding to BMP-9 | B1 |  | 1% | 99% |  |  |  |  |  |  | comparable to P1229 | comparable to P1229

Reference: patent US20260193317A1, “COMBINATION THERAPY WITH ACTRIIB RECEPTOR VARIANTS AND GLP-1 AGONISTS” (35PHARMA Inc., priority 2023, published 2026)
